Results: US20240294624A1, “ANTI-ERYTHROPOIETIN ANTIBODY” (ANDREMACON S.R.L., priority 2021, published 2024)

What was measured:
MCF-7 [1] = test: MTT cell viability assay; assay type: cell-based, human; conditions: 96 hours, 6 μg/ml
Source text: G. Breast cancer cell line (MCF-7); breast cancer cells.

A2780 = test: Caspase Glo 3/7 assay; assay type: cell-based, human
Protocol: (§1) Furthermore, cellular models were treated the above-mentioned pharmacological drugs and apoptotic effect was evaluated by caspase activity.
(§2) Data are expressed as the mean±standard deviation of at least 3 experiments in triplicate. *P<0.05 versus CTR for all treatments tested.

SHSY-5Y = test: Caspase Glo 3/7 assay; assay type: cell-based, human
Protocol: as §1, §2

[2] = system: anaplastic astrocytoma cancer stem cells; test: Caspase Glo 3/7 assay; assay type: cell-based, human
Protocol: as §1, §2

MCF-7 [3] = test: Caspase Glo 3/7 assay; assay type: cell-based, human
Protocol: as §1, §2

DLD1 = test: Caspase Glo 3/7 assay; assay type: cell-based, human
Protocol: as §1, §2

GBM-CSCs = test: Caspase Glo 3/7 assay; assay type: cell-based, human
Protocol: as §1, §2

A549 [4] = test: Caspase Glo 3/7 assay; assay type: cell-based, human
Protocol: as §1, §2

GECs = test: Caspase Glo 3/7 assay; assay type: cell-based, human
Protocol: as §1, §2

GSCs = test: Caspase Glo 3/7 assay; assay type: cell-based, human
Protocol: as §1, §2

K562 = test: Caspase Glo 3/7 assay; assay type: cell-based, human
Protocol: as §1, §2

LNCAP = test: Caspase Glo 3/7 assay; assay type: cell-based, human
Protocol: as §1, §2

GBM-ECs = test: Tube formation assay on Matrigel; assay type: cell-based, human; conditions: 48 h
Protocol: GBM-ECs (1×10^4) were plated on 10 μL of Matrigel in BM, as a Control Condition (CTR, FIG. 8A) or in media containing the anti-EPO (C4) (FIG. 8B), TMZ (FIG. 8C), FTY720 (FIG. 8D), and anti-EPO (C4)+TMZ+FTY720 (FIG. 8E) treatments, as reported above. GBM-ECs were incubated at 37° C., 5% C02, 5% 02. After 48 h, tube-like structure formation was evaluated by phase-contrast microscopy.

HOC84 stem cells = conditions: naturally resistant to carboplatin, 96 h, CPT 40 μg/mL
Protocol: HOC84, which are naturally resistant to carboplatin (CPT), were cultured for 96 h in basal condition supplemented with 40 μg/mL of CPT. Cell viability was assessed by 3-(4,5-Dimethylthiazol-2-yl)-2,5-Diphenyl-tetrazoliumBromide (MTT) assay, as a function of redox potential (FIG. 24). […] Then, culture media were replaced with fresh media containing the specific treatments, or in BM as a control condition (CTR).
Test was performed in triplicate after 96 h of treatment, by replacing culture media with 100 μL of fresh media added with 10 μL of MTT 5 mg/ml in D-PBS. After 4 h of incubation, media were removed and cells were lysed with 100 μL of 2-propanol/formic acid (95:5, by vol) for 10 min.

A549 [5] = test: MTT cell viability assay; assay type: cell-based, human; conditions: 96 hours, 6 μg/ml
Source text: J. Lung carcinoma cell line (A549): human lung cancer cells used for drug efficacy screening, biochemical mechanisms and alveolar differentiation;

HOC84 = test: MTT cell viability assay; assay type: cell-based, human; conditions: 96 hours, 6 μg/ml
Source text: N. Human ovarian Cell (HOC) cultured in stem cell condition. In particular, HOC84 stem cells were obtained by digestion and cell isolation form a patient-derived xenograft (PDX) model from a high grade serous epithelial ovarian cancer, obtained by serial passages in nude mice.

human healthy astrocytes = test: MTT cell viability assay; assay type: cell-based; conditions: 96 hours
Source text: L. Human healthy Astrocytes is a commercial cell line of human healthy astrocytes

primary GECs = test: MTT cell viability assay; assay type: cell-based, human; conditions: 96 hours, anti-EPO (C4) 6 μg/ml, TMZ 100 μM, FTY720 100 nM
Source text: B. Primary glioblastoma endothelial cells (GECs).

[6] = system: human tumor GSC-derived xenograft; test: Gene expression of GSC-derived xenograft after in vivo treatment; parameters: species or system mice; conditions: xenograft GSCs; RealTime PCR
Protocol: The analysis was performed by the assessment of gene expression profile on human tumor GSC-derived xenograft. Gene expression analysis were conducted by Real-Time PCR, run in triplicate, using 18S as endogenous control. Samples have been normalized to untreated CTRL. The analysis was conducted on genes related to FIG. 30A apoptosis, FIG. 30B inflammation, FIG. 30C proliferation.
Tissues were processed and total RNA was extracted following TRI-Reagent protocol and quantified with NanoDrop 1000 Spectro-photometer (Thermo Fisher Scientific). Reverse transcriptase reaction was executed using TranScriba Kit (A&A Biotechnology), loading 1 μg of RNA (A260/A280>1.8), according to manufacturer's instructions. qRT-PCR was performed using StepOnePlus™ (Thermo Fisher Scientific), 1 μg of cDNA, forward and reverse human primers (250 nM each) Titan HotTaq EvaGreen® qPCR Mix (Bioatlas). Data were normalized to 18S expression, used as endogenous control. Relative gene expression was determined using the 2-ΔΔCt method (FIG. 30).

U373 cells = test: MTT viability of chemo-resistant cells; assay type: cell-based; conditions: 96 h
[7] = Hematological toxicity, blood count; assay type: in vivo; conditions: mice; IV 10 mg/Kg; 18 days
Protocol: Blood samples (100 μL) were collected into K3EDTA coated tubes, which were placed on a rotary mixer for at least 30 min, then analyzed for hematological analysis.
FIGS. 27 and 28 refer to blood count of mice treated intravenously (IV) for 18 days (T18) with anti-EPO at 10 mg/Kg. (A) RBC: red blood cells; (B) HGB: hemoglobin; (C) HCT: hematocrit; (D) MCV: mean corpuscular volume; (E) MCH: mean corpuscular hemoglobin; (F) MCHC: mean corpuscular hemoglobin concentration; (G) RDW: red cell distribution width; (H) RET: reticulocyte Count; (I) PLT: platelets. Data are means±SD (FIG. 27) and A) WBC: white blood cells; (B) NEUT: neutrophils; (C) LYMP: lymphocytes; (D) MONO: monocytes; (E) EOS: eosinophils; (F) BASO: basophils. Data are means±SD (FIG. 28).

S-ECs = test: Tube formation assay on Matrigel; assay type: cell-based, human; conditions: 48 h
Protocol: S-ECs (1×10^4) were plated on 10 μL of Matrigel in BM, as a Control Condition (CTR, FIG. 19A) or in media containing the anti-EPO (C4) (FIG. 19B), FTY720 (FIG. 19C), and anti-EPO (C4)+FTY720 (FIG. 19D) treatments, as reported above. S-ECs were incubated at 37° C., 5% C02, 5% 02. After 48 h, tube-like structure formation was evaluated by phase-contrast microscopy. […] Data are expressed as the mean±standard deviation of at least 3 experiments in triplicate. * P<0.05 versus CTR for treatments tested.

B1: anti-EPO (C4): isolated anti-Erythropoietin monoclonal antibody, VL SEQ ID NO:6, VH SEQ ID NO:14, hybridoma DSM ACC 3370 (antibody, listed as Homo sapiens, V domains shown)
VH: EVKLQESGGGLVQPGGSLKLSCAASGFTFSTYTMSWVRQTPEKRLEWVAYISNGGDRTYYPDTVKGRFTISRDDAKNTLFLQMSSLKSEDTAMYYCARHNITTVPFTMDYWGQGTSVTVSS
VL: DIVLTQSPASLAVSLGQRATISCRASESVDYYGTGLMQWYQQRPGQPPKLLIYGASNVGSGVPARFSGSGSGTDFSLNIHPVEGDDIAMYFCQQTRKVPSTFGGGTKLEIK
modifications: VH amino acid sequence; VL amino acid sequence
MCF-7 [1]
  cells initially plated dead: 71%
A2780
  increment of apoptosis (caspase 3/7 activation): 234%
SHSY-5Y
  increment of apoptosis (caspase 3/7 activation): 200%
[2]
  increment of apoptosis (caspase 3/7 activation): 205%
MCF-7 [3]
  increment of apoptosis (caspase 3/7 activation): 218%
DLD1
  increment of apoptosis (caspase 3/7 activation): 217%
GBM-CSCs
  increment of apoptosis (caspase 3/7 activation): 210%
A549 [4]
  increment of apoptosis (caspase 3/7 activation): 200%
GECs
  increment of apoptosis (caspase 3/7 activation): 220%
GSCs
  increment of apoptosis (caspase 3/7 activation): 200%
K562
  increment of apoptosis (caspase 3/7 activation): 180%
LNCAP
  increment of apoptosis (caspase 3/7 activation): 220%
GBM-ECs
  decrease of total length of formed tubes: 70%
GBM-ECs; phase-contrast microscopy
  formation of tubular-like structures: able to block the formation of tubular-like structures
HOC84 stem cells
  mortality: 66%
A549 [5]
  cells initially plated dead: 63%
HOC84
  cells initially plated dead: 68%
Human healthy astrocytes
  effect on human healthy astrocyte viability: did not affected human healthy astrocyte viability
Primary GECs
  cells initially seeded dead: ~70%
[6]
  gene expression on tumoral cells after in vivo treatment: induced inhibition cancer stem cell proliferation, increase apoptosis and inflammation
U373 cells
  percent survival: 30%
[7]
  blood count (hematological parameters): no significant variations in all hematological parameters analyzed
S-ECs
  decrease of total length of formed tubes: 65%
  formation of tubular-like structures: able to block the formation of tubular-like structures
